From US11466260B2, “Thermostable haloarchaeal inorganic pyrophosphatase” (UNIVERSITY OF FLORIDA RESEARCH FOUNDATION, INCORPORATED, priority 2015, dated 2022)

Columns and labels:
[1] = biological target: T1, HvPPA (Haloferax volcanii, UniProt D4GT97); test: Sodium fluoride-based inhibition of HvPPA; assay type: biochemical
T1 construct: thrombin-cleavage site (linker between His6 and HvPPA) (N); made in house; host or cells: Haloferax volcanii H26-pJAM2920
T1 sequence (D4GT97 1-177): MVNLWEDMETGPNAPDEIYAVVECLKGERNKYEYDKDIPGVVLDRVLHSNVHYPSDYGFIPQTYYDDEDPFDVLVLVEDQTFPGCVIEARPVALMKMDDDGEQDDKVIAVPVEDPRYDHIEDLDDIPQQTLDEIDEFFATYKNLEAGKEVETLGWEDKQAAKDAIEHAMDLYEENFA
Description: A) HvPPA (1.3 μg) was assayed in 1 ml reaction volume containing 1 mM PPi, 10 mM MgCl2, 3 M NaCl and 20 mM Tris-Cl buffer pH 7.5 supplemented with NaF as indicated. Reactions were monitored for 15 min at RT.
HvPPA-mediated hydrolysis of PPi to Pi was determined spectrophotometrically. Reagents were in nanopure water (Barnstead/Thermolyne Nanopure lab water system). Sodium pyrophosphate tetrabasic decahydrate (Sigma Aldrich) was used as a substrate. For kinetic measurements, reaction mixtures (500 μl total) contained 0.5-1 μg HvPPA and 1 mM PPi in high-salt buffer (3 M NaCl and 20 mM Tris-HCl, pH 8.5). Reactions were incubated at 42° C. for 1-3 min. Orthophosphate levels were determined by malachite green assay. Briefly, 2.5 ml of 14% (w/v) (NH4)2MoO4 and 0.2 ml of 11% (v/v) TWEEN 20 ® (Polyoxyethylene sorbitan monolaurate) were added into a 10-ml color reagent I (containing 1.67 ml conc. sulfuric acid, 8.33 ml nanopure H2O, and 12.22 mg malachite green). In triplicate, 50 μl of the color reagent was mixed with 200 μl of the reaction mixture and incubated at room temperature for 10 min. The formation of (MG^+)(H2PMo12O40) (where MG^+ represents ionized malachite green) was monitored at A630. A less sensitive malachite green assay was also used in which reaction aliquots (50 μl) were mixed with 250 μl color reagent II and 10 μl 1.5% (v/v) TWEEN 20 ® (Polyoxyethylene sorbitan monolaurate) in triplicate; product formation was immediately monitored at A650. Color reagent II was generated by mixing 1 volume of 4.2% (w/v) (NH4)2MoO4 in 5 N HCl with 3 volumes of 0.2% (w/v) malachite green; after 30 minutes, the solution was filtered with a 0.45 μm filter and stored at room temperature. Freeze-dried KH2PO4 was used as the standard. Assay mixtures with PPi minus HvPPA were used for individual background subtraction. All proteins used in this assay were buffer-exchanged with Tris-high-salt buffer in nanopure H2O prior to use. All experiments were performed in triplicate and the mean±standard deviation (S.D.) was calculated.

[2] = assay type: physicochemical, Haloferax volcanii
Description: FIGS. 6A-6D. Effect of salt, solvent and temperature on Haloferax volcanii inorganic phyrophosphatase (HvPPA). A) HvPPA thermostability. HvPPA was incubated at 42° C. and 65° C. as indicated with enzyme at 0.093 mg/ml of buffer (20 mM Tris-Cl pH 8, 2.5 mM MgCl2 and 3 M NaCl). HvPPA was diluted to 0.28 μg per 100 μl buffer (with MgCl2 increased to 10 mM) and assayed by addition of 1 mM PPi substrate (10 min, RT). Activity is % relative to samples incubated on ice. B) HvPPA stability in 50% (v/v) solvent. HvPPA was incubated for 2 h (on ice) at 0.47 mg/ml buffer (20 mM Tris-Cl pH 8 and 2 M NaCl) supplemented with solvent as indicated. HvPPA was diluted to 2.4 μg per 100 μl buffer (20 mM Tris-Cl pH 8, 2.5 mM MgCl2 and 2 M NaCl) and assayed by addition of 50 μM PPi substrate (10 min, RT). Activity is % relative to samples incubated with no solvent. C) HvPPA activity in 25% (v/v) solvent. Reactions were 500 μl with 2.8 μg HvPPA, 1.5 M NaCl, 1.5 mM PPi, 10 mM MgCl2. Reaction occurred at 10 minutes at RT. D) HvPPA stability in salt. HvPPA was incubated for 2 h (on ice) at 0.3 mg per ml of buffer (20 mM Tris-Cl pH 8) supplemented with NaCl at the concentrations indicated. HvPPA was diluted to 0.87 μg per 100 μl reaction buffer as in FIG. 6B. Activity is % relative to samples incubated in buffer supplemented with 3M NaCl.

[3] = Coupled assay of ubiquitin-like protein adenylation; assay type: biochemical, Haloferax volcanii; conditions: UbaA and HvPPA with ATP and SAMP1, 2 M NaCl, 42° C.
Description: FIGS. 7A-7B. on Haloferax volcanii inorganic phyrophosphatase (HvPPA) activity solvent and coupled adenylation assay at high temperature and low water activity. A) Schematic of the coupled assay. Adenylation of the ubiquitin-like SAMP by the E1-like enzyme (UbaA) was monitored by HvPPA mediated hydrolysis of the PPi (P2O7^4−) by-product to 2 Pi (2 moles HPO4^2−) at 50° C. B) Generation of Pi correlated with the addition of ATP, UbaA, HvPPA and SAMP1 to the assay buffer. ΔGG, C-terminal diglycine residue deletion.
UbaA-mediated hydrolysis of ATP to AMP and PPi in the presence of the ubiquitin-like SAMP1 was monitored by coupled assay with HvPPA. Proteins were buffer-exchanged with HEPES-salt buffer in Nanopure H2O prior to use. Reaction mixtures (500 μl total) containing 20 μM UbaA, 20 μM SAMP1, 0.5 μM HvPPA, 2.5 mM nucleotide, 2.5 mM MgCl2, 50 μM ZnCl2 in high-salt buffer (2 M NaCl and 50 mM HEPES in Nanopure H2O, pH 7.5) were incubated at 37-42° C. for 1 h. Nucleotides were ATP, AMP, ADP, AMP-PNP, CTP, GTP, TTP and UTP. Proteins were removed by Ultracel-3 centrifugal filtration prior to determining orthophosphate levels by malachite green assay modified as described above. Assay mixtures with nucleotide alone were used for individual background subtraction.

B1: HvPPA: Class A type inorganic pyrophosphatase from Haloferax volcanii, amino acid sequence of SEQ ID NO: 2 (protein, listed as Haloferax volcanii)
chain: T1 sequence (D4GT97 1-177)
Inhibitors [1]: NaF
stability when stored in salt [2]: more stable
activity remained ([2]; after 2 h at 42° C., relative to samples on ice): 82%
Thermal inactivation (half-life) ([2]; buffer, pH 8): 2 h
Pi detected in coupled adenylation assay [3]: Significant levels of Pi were detected
